# Assay results from patent US20240317834A1, “COMPOSITIONS AND METHODS FOR NEUROLOGICAL DISEASES” (CODA BIOTHERAPEUTICS, INC., priority 2020, published 2024).
# Columns and labels:
# Lenti-X 293T cells = assay: YFP fluorescence quenching anion reporter plate reader assay of engineered receptors stimulated with acetylcholine or a non-native ligand; format: cell-based
# How it was run: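 YFP quench was followed for about 1 min 43 s after ligand delivered in iodide-based ECS, pH 7.2. Values are end-of-read fluorescence (last 10 s) divided by the pre-ligand baseline (15 s). Cells were LX293T, transfected with receptor DNA a day before the assay.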
# rat DRG neurons = assay: Rheobase shift and evoked action potentials in rat DRG neurons (current clamp); format: cell-based
# Experimental: Using whole cell manual patch clamp electrophysiology in HEK293 cells, rat DRG neurons and rat hippocampal neurons, the EC50 of the various engineered receptors disclosed herein to Ach and non-native ligands was measured using the Hill equation with peak current measurements from escalating doses of ligand. The rheobase shift was also measured in rat DRG neurons, which reflects the efficacy of the receptors. To calculate the rheobase, first, the amount of current that can produce an action potential was determined. Then the ligand was added, followed by a step wise increase in the current injected up to 700 pA.
# For manual patch clamp experiments, Cells plated on coverslips were visualized at 10× and 40× on an inverted fluorescence microscope (Olympus). Recordings were made with an Axopatch 200B amplifier and Digidata 1550B (Molecular Devices) at RT using 3-6 MOhm glass patch electrodes (Sutter, BF150-86-10). Unless otherwise stated, recordings were made in extracellular solution (ECS) containing: 140 mM sodium chloride, 4 mM potassium chloride, 1 mM magnesium chloride, 2 mM calcium chloride, 10 mM HEPES, and 10 mM D-(+)-glucose (pH=7.3 with sodium hydroxide, osmolarity=305−315 mOsm). An 8-line reservoir (AutoMate Scientific) in combination with an 8-channel zero-dead-volume perfusion pencil (AutoMate Scientific) was used for perfusion. Data was acquired using pClamp software (Molecular Devices). Traces were either analyzed in Clampfit (Molecular Devices) or using custom Python code. Plotting and statistics were performed in GraphPad Prism.
# DRG rheobase experiments were performed in current clamp mode using a potassium-based internal solution containing: 100 mM potassium D-gluconate, 28 mM potassium chloride, 1 mM magnesium chloride hexahydrate, 5 mM magnesium ATP, 10 mM HEPES, and 0.5 mM EGTA (pH=7.2 with potassium hydroxide, osmolarity=290-295 mOsm, calculated liquid junction potential=−13.5 mV). To measure DRG input resistance and rheobase, 500 ms current steps (−200 pA to 700 pA) were applied the membrane in the presence and absence of a compound. No holding current was applied to the membrane for cells included in the final datasets. Data were acquired at 10 kHz, with Bessel filter at 2 kHz and series resistance compensation at 100%. Rheobase was defined as the smallest depolarizing current injection required to cause an action potential to fire in the cell. In a subset of cells, the rheobase was ambiguous, since the action potential appeared to be graded in amplitude. In these cases, a […] of the trace clarified the rheobase. Input resistance was measured from the negative current injections, calculated as the difference in membrane potential at steady state divided by the current injection amplitude and then averaged across the four negative current steps for each recording. Resting membrane potential was measured from the first 100 ms of each sweep, averaged for each recording, and corrected for liquid junction potential. One-way ANOVA with multiple comparisons was used to test for significance of difference in rheobase and input resistance between baseline, drug, and wash conditions.
molecule,measurement,setting,value
"CODA1027: engineered chimeric LGIC receptor, R101F, L131D in SEQ ID NO: 33 (protein, synthetic sequence of chimeric LGIC) MRCSPGGVWLALAASLLHVSLQGEFQRKLYKELVKNYNPLERPVANDSQPLTVYFSLSLLQIMDVDEKNQVLTTNIWLQMSWTDHYLQWNVSEYPGVKTVFFPDGQIWKPDILLYNSADERFDATFHTNVDVNSSGHCQYLPPGIFKSSCPMDLKNFPMDVQTCKLKFGSWSYGGWSLDLQMQEADISGYIPNGEWDLVGIPGKRSERFYECCKEPYPDVTFTVTMRRRMGYYLIQMYIPSLLIVILSWISFWINMDAAPARVGLGITTVLTMTTQSSGSRASLPKVSYVKAIDIWMAVCLLFVFSALLEYAAVNFVSRQHKELLRFRRKRRHHKSPMLNLFQEDEAGEGRFNFSAYGMGPACLQAKDGISVKGANNSNTTNPPPAPSKSPEEMRKLFIQRAKKIDKISRIGFPMAFLIFNMFYWIIYKIVRREDVHNQ",YFP fluorescence quenching using CNL001,"Lenti-X 293T cells; 1 nM CNL001, first column",24.049%
same,YFP fluorescence quenching using CNL001,"Lenti-X 293T cells; 1 nM CNL001, second column",36.755%
same,YFP fluorescence quenching using TC-5619/Bradanicline,Lenti-X 293T cells; 1 nM brd,−10.07%
same,YFP fluorescence quenching using TC-5619/Bradanicline,Lenti-X 293T cells; 3 nM brd,−0.8%
same,YFP fluorescence quenching using Varenicline,"Lenti-X 293T cells; 3 nM var, first column",−3.367
same,YFP fluorescence quenching using Varenicline,"Lenti-X 293T cells; 3 nM var, second column",−0.431
same,YFP fluorescence quenching using CNL001,"Lenti-X 293T cells; 10 nM CNL001, first column",52.927%
same,YFP fluorescence quenching using CNL001,"Lenti-X 293T cells; 10 nM CNL001, second column",61.449%
same,YFP fluorescence quenching using TC-5619/Bradanicline,Lenti-X 293T cells; 10 nM brd,1.74%
same,YFP fluorescence quenching using TC-5619/Bradanicline,Lenti-X 293T cells; 30 nM brd,53.95%
same,YFP fluorescence quenching using Facinicline,Lenti-X 293T cells; 30 nM fac,−10.05
same,YFP fluorescence quenching using Varenicline,"Lenti-X 293T cells; 30 nM var, first column",−0.761
same,YFP fluorescence quenching using Varenicline,"Lenti-X 293T cells; 30 nM var, second column",2.989
same,YFP fluorescence quenching using CNL001,"Lenti-X 293T cells; 50 nM CNL001, first column",67.308%
same,YFP fluorescence quenching using CNL001,"Lenti-X 293T cells; 50 nM CNL001, second column",68.77%
same,YFP fluorescence quenching using ABT-126,Lenti-X 293T cells; 50 nM abt,−11.89%
same,YFP fluorescence quenching using CNL001,"Lenti-X 293T cells; 100 nM CNL001, first column",69.049%
same,YFP fluorescence quenching using CNL001,"Lenti-X 293T cells; 100 nM CNL001, second column",71.613%
same,YFP fluorescence quenching using CNL002,Lenti-X 293T cells; 100 nM CNL002,7.75%
same,YFP fluorescence quenching using ABT-126,Lenti-X 293T cells; 100 nM abt,−16.07%
same,YFP fluorescence quenching using AZD-0328,Lenti-X 293T cells; 100 nM azd0328,−4.76%
same,YFP fluorescence quenching using ABT-126,Lenti-X 293T cells; 300 nM abt,−11.21%
same,YFP fluorescence quenching using AZD-0328,Lenti-X 293T cells; 300 nM azd0328,−7.52%
same,YFP fluorescence quenching using TC-5619/Bradanicline,Lenti-X 293T cells; 300 nM brd,76.74%
same,YFP fluorescence quenching using Facinicline,Lenti-X 293T cells; 300 nM fac,−12.54
same,YFP fluorescence quenching using Varenicline,"Lenti-X 293T cells; 300 nM var, first column",2.966
same,YFP fluorescence quenching using Varenicline,"Lenti-X 293T cells; 300 nM var, second column",10.211
same,YFP fluorescence quenching using Varenicline,"Lenti-X 293T cells; 500 nM var, first column",15.278
same,YFP fluorescence quenching using Varenicline,"Lenti-X 293T cells; 500 nM var, second column",20.84
same,YFP fluorescence quenching using CNL001,"Lenti-X 293T cells; 1 uM CNL001, first column",71.811%
same,YFP fluorescence quenching using CNL001,"Lenti-X 293T cells; 1 uM CNL001, second column",69.907%
same,YFP fluorescence quenching using CNL002,Lenti-X 293T cells; 1 uM CNL002,61.97%
same,YFP fluorescence quenching using ABT-126,Lenti-X 293T cells; 1 uM abt,−9.38%
same,YFP fluorescence quenching using TC-6987,Lenti-X 293T cells; 1 uM tc6987,0.88
same,YFP fluorescence quenching using Varenicline,"Lenti-X 293T cells; 1 uM var, first column",37.104
same,YFP fluorescence quenching using Varenicline,"Lenti-X 293T cells; 1 uM var, second column",42.439
same,YFP fluorescence quenching using TC-6987,Lenti-X 293T cells; 10 uM tc6987,56.27
same,YFP fluorescence quenching using CNL002,Lenti-X 293T cells; 30 uM CNL002,65.77%
same,YFP fluorescence quenching using AZD-0328,Lenti-X 293T cells; 30 uM azd0328,74.9%
same,YFP fluorescence quenching using Facinicline,Lenti-X 293T cells; 30 uM fac,70.96
same,YFP fluorescence quenching using TC-6987,Lenti-X 293T cells; 500 uM tc6987,71.3
same,"percent quench of YFP fluorescence, 30 nM TC-6683",Lenti-X 293T cells; TC-6683 30 nM,1.189%
same,"percent quench of YFP fluorescence, 300 nM TC-6683",Lenti-X 293T cells; TC-6683 300 nM,0.939%
same,"percent quench of YFP fluorescence, 3 uM TC-6683",Lenti-X 293T cells; TC-6683 3 uM,1.327%
same,"percent quench of YFP fluorescence, 30 uM TC-6683",Lenti-X 293T cells; TC-6683 30 uM,−0.845%
same,"percent quench of YFP fluorescence, 100 uM TC-6683",Lenti-X 293T cells; TC-6683 100 uM,−3.136%
same,"percent quench of YFP fluorescence, 10 uM ach",Lenti-X 293T cells; acetylcholine 10 uM,−1.62%
same,"percent quench of YFP fluorescence, 50 uM ach",Lenti-X 293T cells; acetylcholine 50 uM,−1.6%
same,"percent quench of YFP fluorescence, 100 uM ach",Lenti-X 293T cells; acetylcholine 100 uM,−2.62%
same,"percent quench of YFP fluorescence, 300 uM ach",Lenti-X 293T cells; acetylcholine 300 uM,−6.12%
same,"percent quench of YFP fluorescence, 500 uM ach",Lenti-X 293T cells; acetylcholine 500 uM,−7.71%
same,"percent quench of YFP fluorescence, 1 mM ach",Lenti-X 293T cells; acetylcholine 1 mM,−5.73%
same,"percent quench of YFP fluorescence, 3 mM ach",Lenti-X 293T cells; acetylcholine 3 mM,33.69%
same,"Rheobase Shift; Rat DRG Neurons, +TC-5619 @ EC90",rat DRG neurons; +TC-5619 @ EC90,638 ± 63 pA
same,"Rheobase Shift; Rat DRG Neurons, Baseline","rat DRG neurons; Baseline, no ligand",100 ± 23 pA
